Experimental data from patent publication US20070293451A1 (UNIVERSITY OF PITTSBURGH, published 2007).
One block for each binder: values may come before it. Ends that are not written are not given here. * marks the point of attachment. 6FAM = O=C1OC2(c3ccc(O)cc3Oc3cc(O)ccc32)c2cc(C(=O)*)ccc21; Ahx = NCCCCCC(=O)O

How the values were obtained:
[1] = target: T1, full length Sse1p (yeast Hsp110) (Saccharomyces cerevisiae (yeast), UniProt P32589 2-693); assay: fluorescence anisotropy competition against the labeled peptide
T1 construct: Purified as in Goeckeler et al., 2002; also called Sselp
T1 sequence: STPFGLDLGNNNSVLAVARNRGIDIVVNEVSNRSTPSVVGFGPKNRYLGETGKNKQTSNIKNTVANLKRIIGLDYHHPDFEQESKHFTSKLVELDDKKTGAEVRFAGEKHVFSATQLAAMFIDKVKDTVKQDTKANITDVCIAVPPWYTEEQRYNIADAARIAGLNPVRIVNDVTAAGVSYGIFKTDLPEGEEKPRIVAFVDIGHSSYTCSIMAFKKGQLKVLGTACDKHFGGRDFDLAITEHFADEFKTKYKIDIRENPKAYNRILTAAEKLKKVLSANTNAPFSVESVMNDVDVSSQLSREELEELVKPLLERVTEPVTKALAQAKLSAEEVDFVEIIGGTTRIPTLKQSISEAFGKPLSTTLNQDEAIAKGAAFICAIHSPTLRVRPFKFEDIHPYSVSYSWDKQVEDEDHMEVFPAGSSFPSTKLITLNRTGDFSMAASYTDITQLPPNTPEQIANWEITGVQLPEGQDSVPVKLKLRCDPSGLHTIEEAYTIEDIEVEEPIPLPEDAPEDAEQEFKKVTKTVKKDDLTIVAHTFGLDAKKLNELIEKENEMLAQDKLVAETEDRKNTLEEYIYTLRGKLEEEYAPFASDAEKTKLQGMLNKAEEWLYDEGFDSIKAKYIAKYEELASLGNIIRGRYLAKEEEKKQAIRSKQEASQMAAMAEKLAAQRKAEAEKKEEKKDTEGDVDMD

[2] = target: T1, full length Sse1p (yeast Hsp110); assay: fluorescence anisotropy
Experimental: (§1) In this assay, full length Sse1p and the peptide binding domain of Sse1p were bound to a 6-carboxyfluorescein-aminohexanoic acid-N-terminal-linked-polypeptide having the sequence N-[…]-C (SEQ ID NO: 1), which was derived from firefly luciferase. Binding was assessed by fluorescence anisotropy. […] Unlabeled peptide competes for binding (data not shown).

[3] = target: T2, peptide binding domain of Sse1p (Saccharomyces cerevisiae (yeast), UniProt P32589 375-693, limits assumed); assay: fluorescence anisotropy; reference is full-length Sse1p
T2 sequence: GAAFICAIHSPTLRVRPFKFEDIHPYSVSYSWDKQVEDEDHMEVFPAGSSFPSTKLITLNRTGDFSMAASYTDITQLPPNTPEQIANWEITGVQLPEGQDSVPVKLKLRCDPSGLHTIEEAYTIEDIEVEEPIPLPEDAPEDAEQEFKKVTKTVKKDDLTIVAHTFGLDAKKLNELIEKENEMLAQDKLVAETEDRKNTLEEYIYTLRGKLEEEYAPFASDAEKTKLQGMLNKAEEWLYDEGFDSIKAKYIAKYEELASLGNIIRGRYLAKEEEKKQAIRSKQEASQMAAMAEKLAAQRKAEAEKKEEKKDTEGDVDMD
Experimental: as §1

- binding result [1]: binds
Binder: LICGFRVVLMYRF [unlabeled peptide LICGFRVVLMYRF]

- Kd [2]: 2 to 3 nM
- fold lower affinity than full-length Sse1p [3]: ~100 fold
B1: 6-carboxyfluorescein-aminohexanoic acid-N-terminal-linked polypeptide LICGFRVVLMYRF (derived from firefly luciferase) (peptide)
peptide: {6FAM-Ahx}-LICGFRVVLMYRF
notes: also called fluorescently labeled peptide
